This note sets out measurements from patent publication US7691605.

In the assay the target is Lz-linker-DHFR 106-187 (yeast) (UniProt P03069). In words: cell-based or functional assay.

As for “Lz-linker-DHFR 1-105 (from UniProt P03069 253-274)”, the cell survival in DHFR selection media lacking glycine, hypoxanthine and thymidine (-GHT) is less than 90 % viability.
